# Article PMC9166738
# Assays:
# [1] = target: Formate dehydrogenase catalytic subunit Fdh3A with N-terminal Strep-tag (Thermococcus onnurineus NA1); assay: SEC; Strep-tag purified CFOR complex on a calibrated Superdex 200 10/300 GL column in buffer W, 0.5 ml/min, anaerobic; complex formed in cells and co-purified beforehand
# [2] = target: Fdh3B-CodhA fusion protein with (GGGGS)1 linker (Thermococcus onnurineus NA1); assay: as above
stoichiometry N [1],stoichiometry N [2],Substance
1,–,Fdh3B-CodhA fusion protein with (GGGGS)1 linker
–,2,CO dehydrogenase catalytic subunit CodhB (enzyme)
